Measured values as given in paper PMC3030345 (The Journal of Biological Chemistry, 2010).

Biological target: the molecule itself
Experiment: atomic force microscopy

B1: A3G-H248A/H250A-Myc-His (enzyme, human, UniProt Q9HC16 1-384, looked up)
chain: MKPHFRNTVERMYRDTFSYNFYNRPILSRRNTVWLCYEVKTKGPSRPPLDAKIFRGQVYSELKYHPEMRFFHWFSKWRKLHRDQEYEVTWYISWSPCTKCTRDMATFLAEDPKVTLTIFVARLYYFWDPDYQEALRSLCQKRDGPRATMKIMNYDEFQHCWSKFVYSQRELFEPWNNLPKYYILLHIMLGEILRHSMDPPTFTFNFNNEPWVRGRHETYLCYEVERMHNDTWVLLNQRRGFLCNQAPAKAGFLEGRHAELCFLDVIPFWKLDLDQDYRVTCFTSWSPCFSCAQEMAKFISKNKHVSLCIFTARIYDDQGRCQEGLRTLAEAGAKISIMTYSEFKHCWDTFVDHQGCPFQPWDGLDEHSQDLSGRLRAILQNQEN
In the case of B1, the “stoichiometry N” value is reported as 2.
